Experimental data taken from the supplement of paper PMC10567573.

B1: PWWP2B (parent)
chain: TIRLRPRQVLCEKCKSTLSPPEAS

Variants of: B1
Assay: protein stability index of a GFP-peptide fusion (GPS, HEK-293T) (PSI 1-6); higher = more stable
Settings: c terminus: a fixed tail appended
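Note: lentivirally expressed fusions sorted by FACS into six bins by GFP to DsRed ratio, PSI derived from sequencing read proportions per bin multiplied by bin number.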

Variant	protein stability index
TIRLRPRQVLCEKCNSTLSPPEAS [K15N]	3.26
TIRLRPRQVLCEKCTSTLSPPEAS [K15T]	3.07
TIRLRPRQVLCEKCQSTLSPPEAS [K15Q]	2.72
TIRLRPRQVLCEKCHSTLSPPEAS [K15H]	2.57
TIRLRPRQVLCEKCGSTLSPPEAS [K15G]	2.83
TIRLRPRQVLCEKCFSTLSPPEAS [K15F]	3.01
TIRLRPRQVLCEKCLSTLSPPEAS [K15L]	2.76
TIRLRPRQVLCEKCISTLSPPEAS [K15I]	2.51
TIRLRPRQVLCEKCVSTLSPPEAS [K15V]	2.71
TIRLRPRQVLCEKCASTLSPPEAS [K15A]	2.71
TIRLRPRQVLCEKCDSTLSPPEAS [K15D]	3.58
TIRLRPRQVLCEKCYSTLSPPEAS [K15Y]	2.73
TIRLRPRQVLCEKCCSTLSPPEAS [K15C]	2.41
TIRLRPRQVLCEKCPSTLSPPEAS [K15P]	4.03
TIRLRPRQVLCEKCSSTLSPPEAS [K15S]	2.74
TIRLRPRQVLCEKCESTLSPPEAS [K15E]	3.72
TIRLRPRQVLCEKCMSTLSPPEAS [K15M]	2.79
TIRLRPRQVLCEKCWSTLSPPEAS [K15W]	2.76
TIRLRPRQVLCEKCRSTLSPPEAS [K15R]	2.59
TIRLRPRQVVCEKCKSTLSPPEAS [L10V]	3.61
TIRLRPRQVRCEKCKSTLSPPEAS [L10R]	2.84
TIRLRPRQVICEKCKSTLSPPEAS [L10I]	2.83
TIRLRPRQVSCEKCKSTLSPPEAS [L10S]	3.13
TIRLRPRQVQCEKCKSTLSPPEAS [L10Q]	3.53

Variant	protein stability index
TIRLRPRQVTCEKCKSTLSPPEAS [L10T]	3.43
TIRLRPRQVNCEKCKSTLSPPEAS [L10N]	3.53
TIRLRPRQVMCEKCKSTLSPPEAS [L10M]	2.83
TIRLRPRQVPCEKCKSTLSPPEAS [L10P]	3.37
TIRLRPRQVKCEKCKSTLSPPEAS [L10K]	3.38
TIRLRPRQVYCEKCKSTLSPPEAS [L10Y]	2.5
TIRLRPRQVWCEKCKSTLSPPEAS [L10W]	2.48
TIRLRPRQVLCEKCKATLSPPEAS [S16A]	3.08
TIRLRPRQVLCEKCKCTLSPPEAS [S16C]	2.98
TIRLRPRQVLCEKCKVTLSPPEAS [S16V]	2.61
TIRLRPRQVLCEKCKDTLSPPEAS [S16D]	2.78
TIRLRPRQVLCEKCKRTLSPPEAS [S16R]	3.2
TIRLRPRQVLCEKCKHTLSPPEAS [S16H]	2.76
TIRLRPRQVLCEKCKETLSPPEAS [S16E]	3.65
TIRLRPRQVLCEKCKNTLSPPEAS [S16N]	3.34
TIRLRPRQVLCEKCKMTLSPPEAS [S16M]	2.94
TIRLRPRQVLCEKCKITLSPPEAS [S16I]	2.66
TIRLRPRQVLCEKCKWTLSPPEAS [S16W]	1.96
TIRLRPRQVLCEKCKKTLSPPEAS [S16K]	3.09
TIRLRPRQVLCEKCKQTLSPPEAS [S16Q]	3.35
TIRLRPRQVLCEKCKTTLSPPEAS [S16T]	2.92
TIRLRPRQVLCEKCKYTLSPPEAS [S16Y]	2.27
TIRLRPRQVLCEKCKFTLSPPEAS [S16F]	2.18
TIRLRPRQVLCEKCKPTLSPPEAS [S16P]	2.73

Variant	protein stability index
TIRLRPRQVLCEKCKLTLSPPEAS [S16L]	2.59
TIRLRPRQVLCEKCKGTLSPPEAS [S16G]	3.07
TIRLRPRQVLCEKIKSTLSPPEAS [C14I]	3.64
TIRLRPRQVLCEKFKSTLSPPEAS [C14F]	3.19
TIRLRPRQVLCEKGKSTLSPPEAS [C14G]	4.08
TIRLRPRQVLCEKMKSTLSPPEAS [C14M]	3.44
TIRLRPRQVLCEKHKSTLSPPEAS [C14H]	3.52
TIRLRPRQVLCEKEKSTLSPPEAS [C14E]	4.23
TIRLRPRQVLCEKVKSTLSPPEAS [C14V]	3.52
TIRLRPRQVLCEKLKSTLSPPEAS [C14L]	3.13
TIRLRPRQVLCEKTKSTLSPPEAS [C14T]	4.22
TIRLRPRQVLCEKAKSTLSPPEAS [C14A]	3.85
TIRLRPRQVLCEKYKSTLSPPEAS [C14Y]	3.45
TIRLRPRQVLCEKRKSTLSPPEAS [C14R]	3.32
TIRLRPRQVLCEKKKSTLSPPEAS [C14K]	4.05
TIRLRPRQVLCEKQKSTLSPPEAS [C14Q]	4.05
TIRLRPRQVLCEKWKSTLSPPEAS [C14W]	2.58
TIRLRPRQVLCEKDKSTLSPPEAS [C14D]	4.04
TIRLRPRQVLCEKPKSTLSPPEAS [C14P]	4.29
TIRLRPRQVLCEKSKSTLSPPEAS [C14S]	3.84
TIRLRPRQVLCEKNKSTLSPPEAS [C14N]	4.05
TIRLRPRQVLCFKCKSTLSPPEAS [E12F]	2.25
TIRLRPRQVLCPKCKSTLSPPEAS [E12P]	2.99
TIRLRPRQVLCKKCKSTLSPPEAS [E12K]	2.42

Variant	protein stability index
TIRLRPRQVLCIKCKSTLSPPEAS [E12I]	1.93
TIRLRPRQVLCCKCKSTLSPPEAS [E12C]	2.26
TIRLRPRQVLCWKCKSTLSPPEAS [E12W]	2.28
TIRLRPRQVLCDKCKSTLSPPEAS [E12D]	3.28
TIRLRPRQVLCAKCKSTLSPPEAS [E12A]	2.59
TIRLRPRQVLCVKCKSTLSPPEAS [E12V]	2.39
TIRLRPRQVLCMKCKSTLSPPEAS [E12M]	2.26
TIRLRPRQVLCRKCKSTLSPPEAS [E12R]	3.08
TIRLRPRQVLCTKCKSTLSPPEAS [E12T]	2.82
TIRLRPRQVLCYKCKSTLSPPEAS [E12Y]	2.2
TIRLRPRQVLCQKCKSTLSPPEAS [E12Q]	2.33
TIRLRPRQVLCHKCKSTLSPPEAS [E12H]	3.03
TIRLRPRQVLCLKCKSTLSPPEAS [E12L]	1.97
TIRLRPRQVLCGKCKSTLSPPEAS [E12G]	2.59
TIRLRPRQVLCSKCKSTLSPPEAS [E12S]	3.01
TIRLRPRQVLCNKCKSTLSPPEAS [E12N]	2.81
TIRLRPRQVLCEKCKSDLSPPEAS [T17D]	3.19
TIRLRPRQVLCEKCKSALSPPEAS [T17A]	3.33
TIRLRPRQVLCEKCKSVLSPPEAS [T17V]	2.48
TIRLRPRQVLCEKCKSQLSPPEAS [T17Q]	2.78
TIRLRPRQVLCEKCKSNLSPPEAS [T17N]	2.76
TIRLRPRQVLCEKCKSKLSPPEAS [T17K]	2.62
TIRLRPRQVLCEKCKSCLSPPEAS [T17C]	2.5
TIRLRPRQVLCEKCKSGLSPPEAS [T17G]	2.82

Variant	protein stability index
TIRLRPRQVLCEKCKSRLSPPEAS [T17R]	2.77
TIRLRPRQVLCEKCKSMLSPPEAS [T17M]	2.77
TIRLRPRQVLCEKCKSELSPPEAS [T17E]	3.97
TIRLRPRQVLCEKCKSLLSPPEAS [T17L]	3
TIRLRPRQVLCEKCKSPLSPPEAS [T17P]	3.44
TIRLRPRQVLCEKCKSYLSPPEAS [T17Y]	2.18
TIRLRPRQVLCEKCKSFLSPPEAS [T17F]	2.56
TIRLRPRQVLCEKCKSHLSPPEAS [T17H]	2.76
TIRLRPRQVLCEKCKSWLSPPEAS [T17W]	1.89
TIRLRPRQVLCEKCKSSLSPPEAS [T17S]	2.96
TIRLRPRQVLCEKCKSILSPPEAS [T17I]	2.88
TIRLRPRQVLCEKCKSTLSDPEAS [P20D]	3.5
TIRLRPRQVLCEKCKSTLSCPEAS [P20C]	2.87
TIRLRPRQVLCEKCKSTLSEPEAS [P20E]	3.22
TIRLRPRQVLCEKCKSTLSFPEAS [P20F]	2.26
TIRLRPRQVLCEKCKSTLSAPEAS [P20A]	2.79
TIRLRPRQVLCEKCKSTLEPPEAS [S19E]	3.32
TIRLRPRQVLCEKCKSTLHPPEAS [S19H]	2.68
TIRLRPRQVLCEKCKSTLVPPEAS [S19V]	3.18
TIRLRPRQVLCEKCKSTLCPPEAS [S19C]	2.99
TIRLRPRQVLCEKCKSTLTPPEAS [S19T]	2.37
TIRLRPRQVLCEKCKSTLNPPEAS [S19N]	3.25
TIRLRPRQVLCEKCKSTLWPPEAS [S19W]	1.84
TIRLRPRQVLCEKCKSTLPPPEAS [S19P]	3.16

Variant	protein stability index
TIRLRPRQVLCEKCKSTLKPPEAS [S19K]	2.56
TIRLRPRQVLCEKCKSTLYPPEAS [S19Y]	2.94
TIRLRPRQVLCEKCKSTLGPPEAS [S19G]	2.29
TIRLRPRQVLCEKCKSTLIPPEAS [S19I]	3.35
TIRLRPRQVLCEKCKSTLRPPEAS [S19R]	2.59
TIRLRPRQVLCEKCKSTLAPPEAS [S19A]	3.02
TIRLRPRQVLCEKCKSTLDPPEAS [S19D]	3.68
TIRLRPRQVLCEKCKSTLFPPEAS [S19F]	2.83
TIRLRPRQVLCEKCKSTLMPPEAS [S19M]	2.74
TIRLRPRQVLCEKCKSTLQPPEAS [S19Q]	3.01
TIRLRPRQVLCEKCKSTLLPPEAS [S19L]	2.72
TIRLRPRQVLCEACKSTLSPPEAS [K13A]	2.72
TIRLRPRQVLCEDCKSTLSPPEAS [K13D]	3.39
TIRLRPRQVLCEGCKSTLSPPEAS [K13G]	2.6
TIRLRPRQVLCEHCKSTLSPPEAS [K13H]	2.53
TIRLRPRQVLCERCKSTLSPPEAS [K13R]	3.37
TIRLRPRQVLCENCKSTLSPPEAS [K13N]	2.78
TIRLRPRQVLCETCKSTLSPPEAS [K13T]	2.39
TIRLRPRQVLCECCKSTLSPPEAS [K13C]	2.74
TIRLRPRQVLCEMCKSTLSPPEAS [K13M]	2.84
TIRLRPRQVLCEQCKSTLSPPEAS [K13Q]	2.83
TIRLRPRQVLCEECKSTLSPPEAS [K13E]	3.32
TIRLRPRQVLCEICKSTLSPPEAS [K13I]	2.73
TIRLRPRQVLCEYCKSTLSPPEAS [K13Y]	2.24

Variant	protein stability index
TIRLRPRQVLCEFCKSTLSPPEAS [K13F]	2.46
TIRLRPRQVLCEWCKSTLSPPEAS [K13W]	2.49
TIRLRPRQVLCELCKSTLSPPEAS [K13L]	1.81
TIRLRPRQVLCESCKSTLSPPEAS [K13S]	3
TIRLRPRQVLCEVCKSTLSPPEAS [K13V]	2.71
TIRLRPRQVLCEPCKSTLSPPEAS [K13P]	3.22
TIRLRPRQVLAEKCKSTLSPPEAS [C11A]	3.06
TIRLRPRQVLKEKCKSTLSPPEAS [C11K]	3.58
TIRLRPRQVLGEKCKSTLSPPEAS [C11G]	3.85
TIRLRPRQVLVEKCKSTLSPPEAS [C11V]	3.25
TIRLRPRQVLLEKCKSTLSPPEAS [C11L]	2.84
TIRLRPRQVLSEKCKSTLSPPEAS [C11S]	3.73
TIRLRPRQVLWEKCKSTLSPPEAS [C11W]	2.23
TIRLRPRQVLYEKCKSTLSPPEAS [C11Y]	3.25
TIRLRPRQVLPEKCKSTLSPPEAS [C11P]	3.46
TIRLRPRQVLREKCKSTLSPPEAS [C11R]	3.4
TIRLRPRQVLFEKCKSTLSPPEAS [C11F]	2.53
TIRLRPRQVLDEKCKSTLSPPEAS [C11D]	3.93
TIRLRPRQVLMEKCKSTLSPPEAS [C11M]	2.86
TIRLRPRQVLHEKCKSTLSPPEAS [C11H]	3.13
TIRLRPRQVLEEKCKSTLSPPEAS [C11E]	4.15
TIRLRPRQVLTEKCKSTLSPPEAS [C11T]	3.6
TIRLRPRQVLNEKCKSTLSPPEAS [C11N]	3.62
TIRLRPRQVLIEKCKSTLSPPEAS [C11I]	3.33

Variant	protein stability index
TIRLRPRQVLQEKCKSTLSPPEAS [C11Q]	3.57
TIRLRPRQVLCEKCKSTNSPPEAS [L18N]	3.63
TIRLRPRQVLCEKCKSTMSPPEAS [L18M]	3.94
TIRLRPRQVLCEKCKSTHSPPEAS [L18H]	3.85
TIRLRPRQVLCEKCKSTISPPEAS [L18I]	3.03
TIRLRPRQVLCEKCKSTPSPPEAS [L18P]	3.94
TIRLRPRQVLCEKCKSTDSPPEAS [L18D]	3.78
TIRLRPRQVLCEKCKSTESPPEAS [L18E]	3.92
TIRLRPRQVLCEKCKSTQSPPEAS [L18Q]	3.05
TIRLRPRQVLCEKCKSTKSPPEAS [L18K]	3.11
TIRLRPRQVLCEKCKSTCSPPEAS [L18C]	3.15
TIRLRPRQVLCEKCKSTVSPPEAS [L18V]	3.18
TIRLRPRQVLCEKCKSTGSPPEAS [L18G]	3.7
TIRLRPRQVLCEKCKSTSSPPEAS [L18S]	2.87
TIRLRPRQVLCEKCKSTASPPEAS [L18A]	2.86
TIRLRPRQVLCEKCKSTTSPPEAS [L18T]	3.08
TIRLRPRQVLCEKCKSTRSPPEAS [L18R]	2.49
TIRLRPRQVLCEKCKSTWSPPEAS [L18W]	1.96
TIRLRPRQVLCEKCKSTFSPPEAS [L18F]	2.89
TIRLRPRQVLCEKCKSTYSPPEAS [L18Y]	2.83
